Test results as given in the supplement of paper PMC9170038.

System: MS2 coat protein
Experiment: apparent KD of MS2 coat protein; designed switch direction (-1 OFF switch, 1 ON switch): 1; higher = weaker reporter binding
Method in brief: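 Stalled E. coli RNA polymerase transcribed designed RNA switches on Illumina chips, which were then titrated with SNAP-549-labelled MS2 coat protein, doubling from 0.7 or 1.5 nM to 3 µM. Steps lasted from 0.8–1.5 h at the lowest concentration to 10–20 min at the highest. The apparent KD is each design's median over clusters of curve-fitted normalised fluorescence.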

[1] = Eterna round: R95, input ligand: FMN 200 uM
[2] = Eterna round: R95, input ligand: microRNA oligo, concentration not stated
[3] = Eterna round: R95, input ligand: none
[4] = input ligand: microRNA oligo, concentration not stated

Sequence | apparent KD of MS2 coat protein [1] [nM] | apparent KD of MS2 coat protein [2] [nM] | apparent KD of MS2 coat protein [3] [nM] | apparent KD of MS2 coat protein (input ligand: FMN 200 uM) [nM] | apparent KD of MS2 coat protein [4] [nM] | apparent KD of MS2 coat protein (input ligand: none) [nM]
AGCUAUCGCGUACGAUAGCUGAAGCGUGUACAUGAGGAUCACCCAUGUCAUGUGCAGGCUUUUUGCUCGUCUUAUUG [JL-shm-2.31 JL mod] (puzzle: Sensor for hsa-mir-208a) | 640 | 17.2 | 648 | – | – | –
AGCUAUUACGAAGGAUAUUGUAACAUGAGGAUCACCCAUGUUUACAUGAUUAAUUGUGAUCACGUCGAGAAGGUUGUACUAACA [SameState NG2 #33] (Eterna round: R96, puzzle: Same State NG 2) | – | – | – | 17.5 | 16.5 | 19
AGCUUACAUGAGGAUCACCCAUGUUUUAGCCAGACAGGAUAUGGGUAUCUAAAACACAACCCAGAAGGGUCAAAAC [Usveriri] (puzzle: Same State 1) | 57.5 | 233 | 489 | – | – | –
AGCUUUUAAUUAGGAUAUGGUCACAUGAGGAUCACCCAUGUAACGAUGAUAUAAUGUGGUCAAGACUAGAAGGGAUCGCUAACA [SameState NG2 #69] (Eterna round: R96, puzzle: Same State NG 2) | – | – | – | 320 | 282 | 284
AGGCUCAGACGAGGAUAUACGUGGUCACAUGAGGAUCACCCAUGUCUCGAGCUUCGGCUCGAGGCGUAGAAGGCGUCUGAGCCA [SSNG2/6-A1] (Eterna round: R96, puzzle: Same State NG 2) | – | – | – | 152 | 201 | 268
AGGCUCAGACGAGGAUAUGGUCAUGGCGCUUCGGCGCAUACAUGAGGAUCACCCAUGUAGGGUGAUCAGAAGGCGUCUGAGCCA [SSNG2/9-A1] (Eterna round: R96, puzzle: Same State NG 2) | – | – | – | 76.8 | 255 | 365
AGGCUCAGAGCAGGAUAUACGUGGUCACAUGAGGAUCACCCAUGUCUCGAGCUUCGGCUCGAGGCGUAGAAGGGCUCUGAGCCA [SSNG2/6-B1] (Eterna round: R96, puzzle: Same State NG 2) | – | – | – | 140 | 204 | 330
AGGCUCGUGCUAGGAUAUCUAGGAUAUGGACGAGGAUUACCCGAGGAGCAUUAGCCCACCAGAGGAGAGAAGGAGCUACAUGCG [pwkr ssNG2 2F5 2FMN.12] (Eterna round: R96, puzzle: Same State NG 2) | – | – | – | 1320 | 509 | 513
AGGGAGGAUGCAGGAUAUACAAGACAUGAGGAUCACCCAUGUACCUUGUGGAGAAGAAAGGAGAGGUAGAAGGGUAGUGAGGAA [Default title] (Eterna round: R96, puzzle: Same State NG 2) | – | – | – | 11.7 | 13 | 16.4
AGGGUACAUGAGGAUCACCCAUGUGGGUCGGUCGCAGGAUAUGCCCGUGGGCGCUGGCGGGCAGAAGGGUGCCGAA [Same State1-IX] (Eterna round: R96, puzzle: Same State 1) | – | – | – | 81.4 | 187 | 341
AGUCCAGCCUGAGCUGGACAAAAGCAUGUACAUGAGGAUCACCCAUGUCAUGUACAAGCUUUUUGCUCGUCAAAAUA [Mat - hsa-mir-208a - Mod of JL - D29] (puzzle: Sensor for hsa-mir-208a) | 396 | 16.5 | 480 | – | – | –
AGUCCAGCCUGAGCUGGACAAAAGCAUGUACAUGAGGAUCACCCAUGUUCAUGUACAAGCUUUUUGCUCGUCUAAAA [Mat - hsa-mir-208a - Mod of JL - 50] (puzzle: Sensor for hsa-mir-208a) | 414 | 16.2 | 540 | – | – | –
AGUCCAGCCUGAGCUGGACAAAAGCAUGUACAUGAGGAUCACCCAUGUUCAUGUACAAGCUUUUUGCUCGUCUUACU [salish99_208a_r3_077] (puzzle: Sensor for hsa-mir-208a) | 618 | 14.6 | 635 | – | – | –
AGUCCAGCCUGAGCUGGACAAAAGCAUGUACAUGAGGAUCACCCAUGUUCAUGUGCAAGCUUUUUGCUCGUCUUAAA [Zipper 52 - 4] (Eterna round: R96, puzzle: Sensor for hsa-mir-208a) | – | – | – | 71.5 | 10.7 | 69.8
AGUCCAGCCUGAGCUGGACAAAAGCAUGUACAUGAGGAUCACCCAUGUUCAUGUGCAAGCUUUUUGCUCGUCUUAAA [Zipper 52 - 4] (puzzle: Sensor for hsa-mir-208a) | 64.9 | 11.4 | 71.2 | – | – | –
AGUCUACGGAAACGUAGACAGUGGAGCGUACAUGAGGAUCACCCAUGUCAUGUGAGAGCUACUUGUUCGUCUUGAGC [SENSOR #5] (puzzle: Sensor for hsa-mir-208a) | 26.4 | 18.5 | 26.8 | – | – | –

Sequence | apparent KD of MS2 coat protein [1] [nM] | apparent KD of MS2 coat protein [2] [nM] | apparent KD of MS2 coat protein [3] [nM] | apparent KD of MS2 coat protein (input ligand: FMN 200 uM) [nM] | apparent KD of MS2 coat protein [4] [nM] | apparent KD of MS2 coat protein (input ligand: none) [nM]
AGUGCAGCCUGAGCUGCACAAAAGCAUGUACAUGAGGAUCACCCAUGUCAUGUACAAGCUUUUUGCUCGUCUUAAAA [Mat - hsa-mir-208a - Mod of JL - D20] (puzzle: Sensor for hsa-mir-208a) | 529 | 15.4 | 688 | – | – | –
AUAAAACAUGAGGAUCACCCAUGUAAAAAUAUGGGAGGAUAUGCGAAAUAAAAUAAAUAAGCAGAAGGCCUAAAAA [SS! MT 19] (Eterna round: R96, puzzle: Same State 1) | – | – | – | 21.1 | 52.8 | 62.7
AUAAAACAUGAGGAUCACCCAUGUCAACAAAGUCGAGGAUAUGGGCAAAUAAAAGAAUAACCAGAAGGCGAAUAAU [salish99_ss1_r3_053] (puzzle: Same State 1) | 46 | 283 | 481 | – | – | –
AUAAAACAUGAGGAUCACCCAUGUCAACAAAGUCGAGGAUAUGGGCAAAUUAAAUAAGAACCAGAAGGCGAAUAAU [salish99_ss1_r3_024] (puzzle: Same State 1) | 33.3 | 184 | 232 | – | – | –
AUAAAACAUGAGGAUCACCCAUGUCAACAAAGUCUAGGAUAUGGGCAAAUAAAAUAAGAACCAGAAGGCGAAUAAU [salish99_ss1_r3_051] (puzzle: Same State 1) | 167 | 177 | 178 | – | – | –
AUAAAACAUGAGGAUCACCCAUGUCUACAAAGUCGAGGAUAUGGGCAAAUAAAAUAAGAACCAGAAGGCGAAUAAU [salish99_ss1_r3_044] (puzzle: Same State 1) | 62.6 | 223 | 275 | – | – | –
AUAAACAGGCUAGGAUAUCCGGAAACUACAGGGCACAACCCUAUAGACAUGAGGAUCACCCAUGUGGAGAAGGAGCCACAUGAA [Ceesis] (Eterna round: R96, puzzle: Same State NG 2) | – | – | – | 40.6 | 156 | 195
AUAAGGCAAGCUUUUUUCUCGUUGUGUAAACAUGAGGAUCACCCAUGUGCUCGCCCUGGAUCUUUGGAUCGCAGAAA [Rarisooron] (puzzle: Sensor for hsa-mir-208a) | 104 | 33.6 | 119 | – | – | –
AUAAGUUUGAUGCUCGUCCCUCCGUACAGACAUGAGGAUCACCCAUGUAGUCGGGAAGUAGCCCGGCCAGUAUGGCC [Biraza] (puzzle: Sensor for hsa-mir-208a) | 15.9 | 12.6 | 15 | – | – | –
AUAAGUUUGAUGCUCGUCUCUCCGUACAGACAUGAGGAUCACCCAUGUAGCCGGGAAGUAGCCCGACCAGUAUGGCC [Isriinus] (puzzle: Sensor for hsa-mir-208a) | 72.2 | 23.9 | 93.7 | – | – | –
AUACAUGAGGAUCACCCAUGUAAUUAAUUAACUUGUAAGAUCAAGGAUAUCAGCUCGAAUAGAGCUGAGAAGGUGAUCACAUGU [SSNG3/21-C1] (Eterna round: R96, puzzle: Same State NG 3) | – | – | – | – | 105 | –
AUACUGUACCGAGGAUAUCCAUUUUUCUAACAUGAGGAUCACCCAUGUGAAGGGAUUGAGUUGUAGGAGAAGGCGGUAUAGUAU [JR_SSNG2_Sub062] (Eterna round: R96, puzzle: Same State NG 2) | – | – | – | 14.8 | 11.6 | 21.5
AUAGUUGCCGAAGGAUAUGAUGAGGAUCACCCAUCAGAAGGUCGGCUAUUGGGUGGAUAUGAGGAUCACCCGUGUUCUUUGGUC (Eterna round: R96, puzzle: Same State NG 1) | – | – | – | 22.4 | 16.7 | 22.9
AUAUGAGGAGCAGGAUAUGCGGAGAAGAAAGAAGCAGAAGGGCUCAUGGGACAACAUGAGGAUCACCCAUGUUCUCCGCGAUGA [AK SSNG1-V2-3.2] (Eterna round: R96, puzzle: Same State NG 1) | – | – | – | 80.2 | 298 | 523
AUCAUAGUAGCGCAGGAUAUCCAGGUCGAGACAUGAGGAUCACCCAUGUCAGCAGGAGGACCAGAGGAGAAGGGUGAGAAAAUAA [Bimaan] (puzzle: Same State 2) | 12.5 | 14.2 | 16.7 | – | – | –
